Data from patent publication US20260069656A1, “Nutritive Polypeptides and Formulations Thereof, and Methods of Production and Use Thereof” (Axcella Health Inc., priority 2013, published 2026).
Where two headings read alike, the source gives them in different places.

B1: Heat-denatured SEQID-00363: SEQID-00363 diluted to 30 g/L in 10% PBS and rapidly heated to 95° C. (protein)
chain: ATLDSWLSNEATVARTAILNNIGADGAWVSGADSGIVVASPSTDNPDYFYTWTRDSGLVLKTLVDLFRNGDTSLLSTIENYISAQAIVQGISNPSGDLSSGAGLGEPKFNVDETAYTGSWGRPQRDGPALRATAMIGFGQWLLDNGYTSTATDIVWPLVRNDLSYVAQYWNQTGYDLWEEVNGSSFFTIAVQHRALVEGSAFATAVGSSCSWCDSQAPEILCYLQSFWTGSFILANFDSSRSGKDANTLLGSIHTFDPEAACDDSTFQPCSPRALANHKEVVDSFRSIYTLNDGLSDSEAVAVGRYPEDTYYNGNPWFLCTLAAAEQLYDALYQWDKQGSLEVTDVSLDFFKALYSDAATGTYSSSSSTYSSIVDAVKTFADGFVSIVETHAASNGSMSEQYDKSDGEQLSARDLTWSYAALLTANNRRNSVVPASWGETSASSVPGTCAATSAIGTYSSVTVTSWPSIVATGGTTTTATPTGSGSVTSTSKTTATASKTSTSTSSTSCTTPTAVAVTFDLTATTTYGENIYLVGSISQLGDWETSDGIALSADKYTSSDPLWYVTVTLPAGESFEYKFIRIESDDSVEWESDPNREYTVPQACGTSTATVTDTWR
modifications: heat-denatured; Aspergillus niger
B2: SEQID-00425: nutritive polypeptide (protein, listed as Kluyveromyces lactis)
chain: MSCLIPENLRNPKKVHENRLPTRAYYYDQDIFESLNGPWAFALFDAPLDAPDAKNLDWETAKKWSTISVPSHWELQEDWKYGKPIYTNVQYPIPIDIPNPPTVNPTGVYARTFELDSKSIESFEHRLRFEGVDNCYELYVNGQYVGFNKGSRNGAEFDIQKYVSEGENLVVVKVFKWSDSTYIEDQDQWWLSGIYRDVSLLKLPKKAHIEDVRVTTTFVDSQYQDAELSVKVDVQGSSYDHINFTLYEPEDGSKVYDASSLLNEENGNTTFSTKEFISFSTKKNEETAFKINVKAPEHWTAENPTLYKYQLDLIGSDGSVIQSIKHHVGFRQVELKDGNITVNGKDILFRGVNRHDHHPRFGRAVPLDFVVRDLILMKKFNINAVRNSHYPNHPKVYDLFDKLGFWVIDEADLETHGVQEPFNRHTNLEAEYPDTKNKLYDVNAHYLSDNPEYEVAYLDRASQLVLRDVNHPSIIIWSLGNEACYGRNHKAMYKLIKQLDPTRLVHYEGDLNALSADIFSFMYPTFEIMERWRKNHTDENGKFEKPLILCEYGHAMGNGPGSLKEYQELFYKEKFYQGGFIWEWANHGIEFEDVSTADGKLHKAYAYGGDFKEEVHDGVFIMDGLCNSEHNPTPGLVEYKKVIEPVHIKIAHGSVTITNKHDFITTDHLLFIDKDTGKTIDVPSLKPEESVTIPSDTTYVVAVLKDDAGVLKAGHEIAWGQAELPLKVPDFVTETAEKAAKINDGKRYVSVESSGLHFILDKLLGKIESLKVKGKEISSKFEGSSITFWRPPTNNDEPRDFKNWKKYNIDLMKQNIHGVSVEKGSNGSLAVVTVNSRISPVVFYYGFETVQKYTIFANKINLNTSMKLTGEYQPPDFPRVGYEFWLGDSYESFEWLGRGPGESYPDKKESQRFGLYDSKDVEEFVYDYPQENGNHTDTHFLNIKFEGAGKLSIFQKEKPFNFKISDEYGVDEAAHACDVKRYGRHYLRLDHAIHGVGSEACGPAVLDQYRLKAQDFNFEFDLAFE
B3: SEQID-00426: methionine deficient nutritive protein (protein, listed as Thermomyces lanuginosus)
chain: EVSQDLFNQFNLFAQYSAAAYCGKNNDAPAGTNITCTGNACPEVEKADATFLYSFEDSGVGDVTGFLALDNTNKLIVLSFRGSRSIENWIGNLNFDLKEINDICSGCRGHDGFTSSWRSVADTLRQKVEDAVREHPDYRVVFTGHSLGGALATVAGADLRGNGYDIDVFSYGAPRVGNRAFAEFLTVQTGGTLYRITHTNDIVPRLPPREFGYSHSSPEYWIKSGTLVPVTRNDIVKIEGIDATGGNNQPNIPDIPAHLWYFGLIGTCL
B4: SEQID-00352: nutritive polypeptide naturally produced in Corn, recombinantly expressed in E. coli (protein)
chain: MATKRSVGTLGEADLKGKKVFVRADLNVPLDDAQKITDDTRIRASVPTIKFLLEKGAKVILASHLGRPKGVTPKYSLKPLVPRLSELLGVEVVMANDCIGEEVEKLAAALPEGGVLLLENVRFYKEEEKNEPEFAKKLASVADLYVNDAFGTAHRAHASTEGVTKYLKPAVAGFLMQKELDYLVGAVANPKKPFAAIVGGSKVSTKIGVIESLLAKVDILILGGGMIYTFYKAQGYSVGKSLVEEDKLELATSLIEKAKAKGVSLLLPTDIVVADKFAADAESKIVPATAIPDDWMGLDVGPDATKTFDEALDTTKTVIWNGPMGVFEFQKFAAGTEAIAKKLAELTTTKGVTTIIGGGDSVAAVEKAGLADKMSHISTGGGASLELLEGKTLPGVLALDDA
modifications: Zea mays
B5: SEQID-00341: nutritive polypeptide (protein, listed as Saccharomyces cerevisiae)
chain: MSTSREDSVYLAKLAEQAERYEEMVENMKTVASSGQELSVEERNLLSVAYKNVIGARRASWRIVSSIEQKEESKEKSEHQVELICSYRSKIETELTKISDDILSVLDSHLIPSATTGESKVFYYKMKGDYHRYLAEFSSGDAREKATNASLEAYKTASEIATTELPPTHPIRLGLALNFSVFYYEIQNSPDKACHLAKQAFDDAIAELDTLSEESYKDSTLIMQLLRDNLTLWTSDMSESGQAEDQQQQQQHQQQQPPAAAEGEAPK
modifications: strain ATCC 204508 / S288c
B6: SEQID-00423: nutritive polypeptide (protein)
chain: VNGTLMQYFEWYTPNDGQHWKRLQNDAEHLSDIGITAVWIPPAYKGLSQSDNGYGPYDLYDLGEFQQKGTVRTKYGTKSELQDAIGSLHSRNVQVYGDVVLNHKAGADATEDVTAVEVNPANRNQETSEEYQIKAWTDFRFPGRGNTYSDFKWHWYHFDGADWDESRKISRIFKFRGEGKAWDWEVSSENGNYDYLMYADVDYDHPDVVAETKKWGIWYANELSLDGFRIDAAKHIKFSFLRDWVQAVRQATGKEMFTVAEYWQNNAGKLENYLNKTSFNQSVFDVPLHFNLQAASSQGGGYDMRRLLDGTVVSRHPEKAVTFVENHDTQPGQSLESTVQTWFKPLAYAFILTRESGYPQVFYGDMYGTKGTSPKEIPSLKDNIEPILKARKEYAYGPQHDYIDHPDVIGWTREGDSSAAKSGLAALITDGPGGSKRMYAGLKNAGETWYDITGNRSDTVKIGSDGWGEFHVNDGSVSIYVQK
modifications: Bacillus Amyloliquefaciens
B7: SEQID-00429: nutritive polypeptide (protein, listed as Bacillus licheniformis)
chain: ANLKGTLMQYFEWYMPNDGQHWKRLQNDSAYLAEHGITAVWIPPAYKGTSQADVGYGAYDLYDLGEFHQKGTVRTKYGTKGELQSAIKSLHSRDINVYGDVVINHKGGADATEDVTAVEVDPADRNRVISGEHRIKAWTHFHFPGRGSTYSDFKWHWYHFDGTDWDESRKLNRIYKFQGKAWDWEVSNENGNYDYLMYADIDYDHPDVAAEIKRWGTWYANELQLDGFRLDAVKHIKFSFLRDWVNHVREKTGKEMFTVAEYWQNDLGALENYLNKTNFNHSVFDVPLHYQFHAASTQGGGYDMRKLLNGTVVSKHPLKAVTFVDNHDTQPGQSLESTVQTWFKPLAYAFILTRESGYPQVFYGDMYGTKGDSQREIPALKHKIEPILKARKQYAYGAQHDYFDHHDIVGWTREGDSSVANSGLAALITDGPGGAKRMYVGRQNAGETWHDITGNRSEPVVINSEGWGEFHVNGGSVSIYVQR

Experiments:
[1] = Intact half-life during simulated gastric fluid (SGF) digestion
Description: (§1) Nutritive polypeptide half-life during simulated digestion. One metric for quantifying the breakdown of polypeptides from an intact form to smaller peptides is the intact half-life. In this experiment the nutritive polypeptide was exposed to a series of proteases that are active in the stomach (pepsin) and intestine (trypsin and chymotrypsin), and the presence of intact protein was measured over time. Specifically, the nutritive polypeptide was first treated at a concentration of 2 g/L with simulated gastric fluid (SGF) (0.03 M NaCl, titrated with HCl to pH 1.5 with a final pepsin: polypeptide ratio of 1:20 w/w) at 37° C. Time points were sampled from the reaction and quenched by addition of 0.2 M Na2CO3. […] Time points were sampled from the reaction and quenched by addition of Trypsin/Chymotrypsin Inhibitor (Sigma) solution until 240 min.
(§2) Time point samples were analyzed for intact protein by chip electrophoresis, polyacrylamide gel electrophoresis, or western blot. For chip electrophoresis (Labchip GX II), samples were analyzed using a HT Low MW Protein Express LabChip® Kit (following the manufacturer's protocol). A protein ladder was loaded every 12 samples for molecular weight determination (kDa) and quantification. For polyacrylamide gel electrophoresis, samples (1 μg) were separated on a NuPAGE® Novex® Bis-Tris Precast gel (Life Technologies) according to the manufacturer's protocol. The gel was stained using SimplyBlue™ SafeStain (Invitrogen) and imaged using a Chemidoc XRS+ (BioRad) or transferred onto nitrocellulose membranes using the iBlot® Dry Blotting System (Life Technologies) and iBlot® Western Detection Kit (Life Technologies) according to the manufacturer's protocol. Proteins were detected by blotting with Anti-His [C-term]-HRP antibody diluted 3:5000 in Blok™-PO Blocking Buffer using the SNAP i.d.® Protein Detection System (Millipore) according to the manufacturer's protocol. Blots were treated with Luminata Classico Western HRP Substrate (Millipore) according to the manufacturer's protocol and imaged using chemiluminescent detection on the Molecular Imager® Gel Doc™ XR+ System (Bio-Rad). Quantification of intact protein was determined by densitometry using ImageLab (BioRad). For all analysis methods the relative concentration of the polypeptide at each time point (if detected) was plotted overtime and fit to an exponential curve to calculate the intact half-life.
(§3) Specifically, the t=0 (enzyme-free control) and t=2 min samples from the SGF digest were analyzed for intact protein as described by chip electrophoresis, SDS-PAGE, western blot, and/or LC-MS/MS. Relative quantities of polypeptides at each time point were determined and the percentage of intact protein remaining at t=2 was determined.

[2] = Pancreatin-based in vitro digestion, free amino acids by RP-HPLC
Description: In this method, pancreatin, a mixture of enzymes, is used to simulate intestinal proteases. Specifically, the digestion of polypeptides into amino acids was analyzed by an in vitro Pancreatin-based digestion assay followed by free amino acid analysis using reversed phase HPLC (RP-HPLC). The nutritive polypeptide was added to SGF (0.92 g/L Pepsin (Sigma), 0.03 M NaCl titrated with HCl to pH 1.5) at a final concentration of 4 g/L and incubated at 37° C. for 120 min. After 120 min, Na2CO3 was added to a final concentration of 16 mM to quench the pepsin reaction. […] Time points were sampled from the reaction and quenched by heating to 95° C. for 5 min. Control samples were protease-free.
Analyses were performed using an Agilent 1100 series system. Primary amino acids were derivitized pre-column at room temperature, online, using o-phthalaldehyde (OPA). The OPA-derivatives were separated using the Zorbax Eclipse-AAA 4.6×150 mm, 3.5 μm column at 40° C. The separation gradient transitioned from 100% 40 mM Na2HPO4 pH 7.8 to 65% acetonitrile/methanol/water mixture (45/45/10) over 23 minutes. Analytes were detected by fluorescence at 340 nm Ex/450 nm Em.

[3] = Solubility of proteins (lyophilized/reconstituted or ultrafiltered); settings: produced in E. coli unless otherwise noted
[4] = simulated gi fluid, pH 1.5
Description: as §1, §2, §3

[5] = Oral pharmacokinetics in humans, plasma amino acid concentrations; parameters: species or system human; settings: in vivo
Description: The anabolic response to protein ingestion is predicated on the delivery of essential amino acids. The purpose of this study was to examine the changes in plasma amino acid concentrations in response to various proteins over a period of 240 minutes. […] Subjects were fasted overnight (>8 hrs) before oral pharmacokinetic study. […] Plasma amino acid concentrations were quantified by Quest Diagnostics or Laboratory Corporation of America. […] FIGS. 64-67 show the plasma time course of each measured amino acid and the aggregate groups, essential amino acids (EAA), branched chain amino acids (BCAA), and total amino acids (TAA), for WPI and SEQID-105. […] Subjects were fasted overnight (>8 hrs) before oral pharmacokinetic study. […] Plasma amino acid concentrations were quantified by Quest Diagnostics or Laboratory Corporation of America. The purpose of this study was to examine the changes in plasma amino acid concentrations in response to a methionine deficient nutritive protein over a period of 240 minutes. […] Plasma amino acid concentrations were quantified by Quest Diagnostics or Laboratory Corporation of America.

[6] = rat, in vivo, po
Description: (§4) Rat pharmacokinetic studies. Male Sprague Dawley rats with indwelling jugular vein cannula (JVC) were purchased from Harlan Laboratories and acclimated to the Test Facility (Agilux Laboratories) for at least two days prior to study initiation. Prior to dose administration animals were fasted overnight (11-13 h) and remained fasted until completion of the study. Test articles were orally administered via a bulb-tipped 18 gauge stainless steel gavage needle attached to a syringe. The weight of all dose syringes were recorded prior to and following dosing to more accurately determine the amount of solution dosed. Serial blood samples (˜300 μL) were collected from the JVC at time 0 (pre-dose) and 0.25, 0.5, 1, 2, and 4 h post-dose. Blood samples were collected into tubes containing the anti-coagulant K2EDTA, a general protease inhibitor cocktail (Sigma P8340, diluted 1:100 in whole blood), and a DPP IV inhibitor (Millipore DPP4, diluted 1:100 in whole blood). Immediately following blood collection tubes were vortexed and stored on wet ice until processing to plasma by centrifugation (3,500 rpm at 5° C.) within 1 h of collection. Plasma samples were then transferred into new tubes and stored at −80° C.
(§5) The concentration of Glu, Ser, His, Gly, Thr, Arg, Ala, Tyr, Val, Met, Phe, Ile, Leu, and Lys in the plasma samples was determined by HPLC amino acid analysis, as described herein. Prior to HPLC amino acid analysis, insoluble particles were removed from plasma samples by centrifugation (1100×g at 4° C.) for 10 min. A 25 μL sample of the soluble fraction was then transferred to a 96-well plate, for some samples an internal standard (Norvaline, Agilent) was added to each plasma sample at final concentration of 0.5 mM.

[7] = Rat pharmacokinetic studies, plasma amino acids by HPLC; settings: oral administration to rats, doses of Table E33A
Description: as §4, §5

[8] = SGF pH 1.5, pepsin:polypeptide 1:20 w/w, 37° C., produced in E. coli unless otherwise noted
[9] = after 120 min SGF, Pancreatin SIF pH 6.5

| Molecule | Solubility [3] [mg/mL] | SGF Half-life (t½) [1, 8] [s] | Free Leu (μM) at 120 min time point of Pancreatin digest [2, 9] [µM] | also measured |
| --- | --- | --- | --- | --- |
| B1 | – | – | – | SGF Half-life (t½) ([1]; native and modified SEQID-00363, gel electrophoresis): 1220 s; Free Leu (μM) at 120 min time point of Pancreatin digest ([2]; native and modified SEQID-00363): 763.5 µM |
| B2 | 190 | 18 | 713.1 | – |
| B3 | – | – | – | SGF Half-life (t½) [4]: 18 s; plasma EAA time course vs basal, Dunnett multiple comparison test [5]: plasma EAA levels at the 30 and 60 min. time points are significantly different from the basal levels at time 0 min; plasma Methionine over time [5]: Methionine shows no significant change over time; plasma amino acid levels across time, 1-way ANOVA [5]: significant differences across time for Glu and EAA; change in AUC0-4 h for plasma Lys [6]: did not alter the change in AUC0-4 h for plasma Lys |
| B4 | 223 | 12 | 906.1 | change in AUC0-4 h for plasma Lys [7]: increased the change in AUC0-4 h for plasma Lys |
| B5 | 166 | 12 | 1143.5 | – |
| B6 | 193 | – | 587.1 | – |
| B7 | 214 | 300 | 580.7 | – |
